{
  "source": "the Human Domainome abundance scans (Beltran et al. 2025)",
  "note": "± gives the uncertainty stated by the source.",
  "data": [
    {"test": "abundance fitness (aPCA) (normalised: wild type 0, dead -1); higher = more abundant; growth selection in yeast, the domain comes from the species named", "settings": "Homo sapiens", "values": [
      {"substance": "BAG family molecular chaperone regulator 3 D51T, O95817", "abundance fitness": "0.29 ± 0.25"},
      {"substance": "BAG family molecular chaperone regulator 3 D51V, O95817", "abundance fitness": "-0.666 ± 0.12"},
      {"substance": "BAG family molecular chaperone regulator 3 D51W, O95817", "abundance fitness": "-1.18 ± 0.23"},
      {"substance": "BAG family molecular chaperone regulator 3 D51Y, O95817", "abundance fitness": "-0.45 ± 0.4"},
      {"substance": "BAG family molecular chaperone regulator 3 E27A, O95817", "abundance fitness": "-0.617 ± 0.18"},
      {"substance": "BAG family molecular chaperone regulator 3 E27C, O95817", "abundance fitness": "-0.789 ± 0.39"},
      {"substance": "BAG family molecular chaperone regulator 3 E27D, O95817", "abundance fitness": "-0.472 ± 0.35"},
      {"substance": "BAG family molecular chaperone regulator 3 E27G, O95817", "abundance fitness": "-0.54 ± 0.14"},
      {"substance": "BAG family molecular chaperone regulator 3 E27K, O95817", "abundance fitness": "-0.42 ± 0.23"},
      {"substance": "BAG family molecular chaperone regulator 3 E27L, O95817", "abundance fitness": "-0.912 ± 0.2"},
      {"substance": "BAG family molecular chaperone regulator 3 E27M, O95817", "abundance fitness": "-0.714 ± 0.19"},
      {"substance": "BAG family molecular chaperone regulator 3 E27N, O95817", "abundance fitness": "-0.889 ± 0.22"},
      {"substance": "BAG family molecular chaperone regulator 3 E27P, O95817", "abundance fitness": "-0.836 ± 0.39"},
      {"substance": "BAG family molecular chaperone regulator 3 E27Q, O95817", "abundance fitness": "-0.222 ± 0.3"},
      {"substance": "BAG family molecular chaperone regulator 3 E27R, O95817", "abundance fitness": "-0.742 ± 0.15"},
      {"substance": "BAG family molecular chaperone regulator 3 E27S, O95817", "abundance fitness": "-0.596 ± 0.14"},
      {"substance": "BAG family molecular chaperone regulator 3 E27T, O95817", "abundance fitness": "-0.555 ± 0.15"},
      {"substance": "BAG family molecular chaperone regulator 3 E27V, O95817", "abundance fitness": "-0.96 ± 0.25"},
      {"substance": "BAG family molecular chaperone regulator 3 E27W, O95817", "abundance fitness": "-0.988 ± 0.48"},
      {"substance": "BAG family molecular chaperone regulator 3 E57A, O95817", "abundance fitness": "-0.317 ± 0.1"},
      {"substance": "BAG family molecular chaperone regulator 3 E57C, O95817", "abundance fitness": "-0.564 ± 0.15"},
      {"substance": "BAG family molecular chaperone regulator 3 E57F, O95817", "abundance fitness": "-0.052 ± 0.28"},
      {"substance": "BAG family molecular chaperone regulator 3 E57G, O95817", "abundance fitness": "-0.237 ± 0.12"},
      {"substance": "BAG family molecular chaperone regulator 3 E57H, O95817", "abundance fitness": "-0.326 ± 0.38"},
      {"substance": "BAG family molecular chaperone regulator 3 E57I, O95817", "abundance fitness": "-0.566 ± 0.36"},
      {"substance": "BAG family molecular chaperone regulator 3 E57K, O95817", "abundance fitness": "-0.11 ± 0.24"},
      {"substance": "BAG family molecular chaperone regulator 3 E57L, O95817", "abundance fitness": "-0.468 ± 0.094"},
      {"substance": "BAG family molecular chaperone regulator 3 E57M, O95817", "abundance fitness": "-0.186 ± 0.24"},
      {"substance": "BAG family molecular chaperone regulator 3 E57N, O95817", "abundance fitness": "0.759 ± 0.22"},
      {"substance": "BAG family molecular chaperone regulator 3 E57P, O95817", "abundance fitness": "-0.027 ± 0.16"},
      {"substance": "BAG family molecular chaperone regulator 3 E57Q, O95817", "abundance fitness": "-0.46 ± 0.33"},
      {"substance": "BAG family molecular chaperone regulator 3 E57R, O95817", "abundance fitness": "-0.119 ± 0.081"},
      {"substance": "BAG family molecular chaperone regulator 3 E57S, O95817", "abundance fitness": "-0.001 ± 0.11"},
      {"substance": "BAG family molecular chaperone regulator 3 E57T, O95817", "abundance fitness": "-0.118 ± 0.21"},
      {"substance": "BAG family molecular chaperone regulator 3 E57V, O95817", "abundance fitness": "-0.721 ± 0.21"},
      {"substance": "BAG family molecular chaperone regulator 3 E57W, O95817", "abundance fitness": "-0.423 ± 0.29"},
      {"substance": "BAG family molecular chaperone regulator 3 E57Y, O95817", "abundance fitness": "-0.44 ± 0.13"},
      {"substance": "BAG family molecular chaperone regulator 3 F38A, O95817", "abundance fitness": "-0.181 ± 0.15"},
      {"substance": "BAG family molecular chaperone regulator 3 F38D, O95817", "abundance fitness": "-0.57 ± 0.14"},
      {"substance": "BAG family molecular chaperone regulator 3 F38E, O95817", "abundance fitness": "-0.356 ± 0.13"},
      {"substance": "BAG family molecular chaperone regulator 3 F38G, O95817", "abundance fitness": "-0.503 ± 0.14"},
      {"substance": "BAG family molecular chaperone regulator 3 F38H, O95817", "abundance fitness": "-0.014 ± 0.15"},
      {"substance": "BAG family molecular chaperone regulator 3 F38I, O95817", "abundance fitness": "-0.692 ± 0.34"},
      {"substance": "BAG family molecular chaperone regulator 3 F38K, O95817", "abundance fitness": "-0.31 ± 0.088"},
      {"substance": "BAG family molecular chaperone regulator 3 F38L, O95817", "abundance fitness": "0.326 ± 0.072"},
      {"substance": "BAG family molecular chaperone regulator 3 F38M, O95817", "abundance fitness": "0.197 ± 0.14"},
      {"substance": "BAG family molecular chaperone regulator 3 F38N, O95817", "abundance fitness": "-0.724 ± 0.46"},
      {"substance": "BAG family molecular chaperone regulator 3 F38Q, O95817", "abundance fitness": "0.571 ± 0.22"},
      {"substance": "BAG family molecular chaperone regulator 3 F38R, O95817", "abundance fitness": "-0.149 ± 0.1"},
      {"substance": "BAG family molecular chaperone regulator 3 F38S, O95817", "abundance fitness": "-0.243 ± 0.069"},
      {"substance": "BAG family molecular chaperone regulator 3 F38T, O95817", "abundance fitness": "-0.622 ± 0.29"},
      {"substance": "BAG family molecular chaperone regulator 3 F38V, O95817", "abundance fitness": "-0.092 ± 0.14"},
      {"substance": "BAG family molecular chaperone regulator 3 F38W, O95817", "abundance fitness": "-0.665 ± 0.25"},
      {"substance": "BAG family molecular chaperone regulator 3 F39A, O95817", "abundance fitness": "-0.89 ± 0.18"},
      {"substance": "BAG family molecular chaperone regulator 3 F39E, O95817", "abundance fitness": "-0.154 ± 0.085"},
      {"substance": "BAG family molecular chaperone regulator 3 F39G, O95817", "abundance fitness": "-0.436 ± 0.067"},
      {"substance": "BAG family molecular chaperone regulator 3 F39H, O95817", "abundance fitness": "-0.615 ± 0.39"},
      {"substance": "BAG family molecular chaperone regulator 3 F39L, O95817", "abundance fitness": "-0.528 ± 0.14"},
      {"substance": "BAG family molecular chaperone regulator 3 F39N, O95817", "abundance fitness": "-0.442 ± 0.29"},
      {"substance": "BAG family molecular chaperone regulator 3 F39P, O95817", "abundance fitness": "-0.639 ± 0.19"},
      {"substance": "BAG family molecular chaperone regulator 3 F39Q, O95817", "abundance fitness": "-0.633 ± 0.5"},
      {"substance": "BAG family molecular chaperone regulator 3 F39R, O95817", "abundance fitness": "-0.618 ± 0.068"},
      {"substance": "BAG family molecular chaperone regulator 3 F39S, O95817", "abundance fitness": "-0.729 ± 0.19"},
      {"substance": "BAG family molecular chaperone regulator 3 F39T, O95817", "abundance fitness": "-0.587 ± 0.26"},
      {"substance": "BAG family molecular chaperone regulator 3 F39V, O95817", "abundance fitness": "-0.754 ± 0.11"},
      {"substance": "BAG family molecular chaperone regulator 3 F39W, O95817", "abundance fitness": "-0.42 ± 0.19"},
      {"substance": "BAG family molecular chaperone regulator 3 F39Y, O95817", "abundance fitness": "-0.244 ± 0.24"},
      {"substance": "BAG family molecular chaperone regulator 3 G15C, O95817", "abundance fitness": "0.649 ± 0.079"},
      {"substance": "BAG family molecular chaperone regulator 3 G15D, O95817", "abundance fitness": "1.2 ± 0.092"},
      {"substance": "BAG family molecular chaperone regulator 3 G15E, O95817", "abundance fitness": "1 ± 0.094"},
      {"substance": "BAG family molecular chaperone regulator 3 G15F, O95817", "abundance fitness": "0.641 ± 0.083"},
      {"substance": "BAG family molecular chaperone regulator 3 G15H, O95817", "abundance fitness": "1.18 ± 0.16"},
      {"substance": "BAG family molecular chaperone regulator 3 G15I, O95817", "abundance fitness": "0.795 ± 0.18"},
      {"substance": "BAG family molecular chaperone regulator 3 G15K, O95817", "abundance fitness": "1.15 ± 0.12"},
      {"substance": "BAG family molecular chaperone regulator 3 G15L, O95817", "abundance fitness": "0.766 ± 0.074"},
      {"substance": "BAG family molecular chaperone regulator 3 G15M, O95817", "abundance fitness": "0.142 ± 0.17"},
      {"substance": "BAG family molecular chaperone regulator 3 G15N, O95817", "abundance fitness": "1.04 ± 0.089"},
      {"substance": "BAG family molecular chaperone regulator 3 G15P, O95817", "abundance fitness": "0.603 ± 0.15"},
      {"substance": "BAG family molecular chaperone regulator 3 G15Q, O95817", "abundance fitness": "0.828 ± 0.094"},
      {"substance": "BAG family molecular chaperone regulator 3 G15R, O95817", "abundance fitness": "0.737 ± 0.059"},
      {"substance": "BAG family molecular chaperone regulator 3 G15S, O95817", "abundance fitness": "0.814 ± 0.067"},
      {"substance": "BAG family molecular chaperone regulator 3 G15T, O95817", "abundance fitness": "0.856 ± 0.082"},
      {"substance": "BAG family molecular chaperone regulator 3 G15V, O95817", "abundance fitness": "0.89 ± 0.078"},
      {"substance": "BAG family molecular chaperone regulator 3 G15W, O95817", "abundance fitness": "-0.481 ± 0.19"},
      {"substance": "BAG family molecular chaperone regulator 3 G15Y, O95817", "abundance fitness": "0.874 ± 0.075"},
      {"substance": "BAG family molecular chaperone regulator 3 G17A, O95817", "abundance fitness": "0.55 ± 0.09"},
      {"substance": "BAG family molecular chaperone regulator 3 G17C, O95817", "abundance fitness": "0.731 ± 0.11"},
      {"substance": "BAG family molecular chaperone regulator 3 G17D, O95817", "abundance fitness": "0.825 ± 0.07"},
      {"substance": "BAG family molecular chaperone regulator 3 G17E, O95817", "abundance fitness": "0.915 ± 0.077"},
      {"substance": "BAG family molecular chaperone regulator 3 G17F, O95817", "abundance fitness": "-0.177 ± 0.23"},
      {"substance": "BAG family molecular chaperone regulator 3 G17H, O95817", "abundance fitness": "1.03 ± 0.1"}
    ]}
  ]
}
